In publication doi:10.1101/2020.05.02.074187 (bioRxiv, 2020):
Like-named read-outs stand apart in the source and are kept apart here.

Assays:
Assay in all cases: single-molecule AFM dynamic force spectroscopy
[1] = target: T1, E-cadherin endogenously expressed on the apical surface of MDCK cells (canine (endogenous in MDCK), UniProt F1PAA9 157-885)
T1 sequence (looked up): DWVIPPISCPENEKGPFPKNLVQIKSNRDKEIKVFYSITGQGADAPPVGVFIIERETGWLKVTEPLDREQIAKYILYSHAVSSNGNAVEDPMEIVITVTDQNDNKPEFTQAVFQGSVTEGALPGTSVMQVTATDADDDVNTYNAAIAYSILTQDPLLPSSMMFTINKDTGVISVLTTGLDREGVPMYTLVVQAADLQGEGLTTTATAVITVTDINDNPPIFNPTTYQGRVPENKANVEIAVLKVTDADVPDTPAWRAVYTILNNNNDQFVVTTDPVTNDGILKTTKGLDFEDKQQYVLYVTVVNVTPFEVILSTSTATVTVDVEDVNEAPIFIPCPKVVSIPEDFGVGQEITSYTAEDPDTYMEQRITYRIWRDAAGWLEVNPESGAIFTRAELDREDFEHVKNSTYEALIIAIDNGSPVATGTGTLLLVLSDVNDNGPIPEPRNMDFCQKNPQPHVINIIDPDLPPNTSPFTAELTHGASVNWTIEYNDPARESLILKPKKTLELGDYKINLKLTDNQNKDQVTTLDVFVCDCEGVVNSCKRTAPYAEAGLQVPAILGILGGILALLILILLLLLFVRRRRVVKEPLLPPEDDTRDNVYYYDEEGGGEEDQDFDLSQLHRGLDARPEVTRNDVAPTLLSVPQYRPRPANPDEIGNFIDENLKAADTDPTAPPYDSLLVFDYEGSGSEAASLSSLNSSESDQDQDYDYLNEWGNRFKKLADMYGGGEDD

[2] = target: T1, E-cadherin endogenously expressed on …; remark: listed apart in the source
[3] = target: T1, E-cadherin endogenously expressed on …; remark: listed apart in the source

koff [1]: 1.77 s⁻¹
koff [2]: 1.73 s⁻¹
koff [3]: 2.37 s⁻¹
B1: recombinant E-cadherin extracellular region, biotinylated monomer with C-terminal Avi tag (domain or fragment, UniProt F1PAA9 157-712, looked up)
chain: DWVIPPISCPENEKGPFPKNLVQIKSNRDKEIKVFYSITGQGADAPPVGVFIIERETGWLKVTEPLDREQIAKYILYSHAVSSNGNAVEDPMEIVITVTDQNDNKPEFTQAVFQGSVTEGALPGTSVMQVTATDADDDVNTYNAAIAYSILTQDPLLPSSMMFTINKDTGVISVLTTGLDREGVPMYTLVVQAADLQGEGLTTTATAVITVTDINDNPPIFNPTTYQGRVPENKANVEIAVLKVTDADVPDTPAWRAVYTILNNNNDQFVVTTDPVTNDGILKTTKGLDFEDKQQYVLYVTVVNVTPFEVILSTSTATVTVDVEDVNEAPIFIPCPKVVSIPEDFGVGQEITSYTAEDPDTYMEQRITYRIWRDAAGWLEVNPESGAIFTRAELDREDFEHVKNSTYEALIIAIDNGSPVATGTGTLLLVLSDVNDNGPIPEPRNMDFCQKNPQPHVINIIDPDLPPNTSPFTAELTHGASVNWTIEYNDPARESLILKPKKTLELGDYKINLKLTDNQNKDQVTTLDVFVCDCEGVVNSCKRTAPYAEAGLQVPA
modifications: biotin (biotinylated with BirA enzyme)
